This passage reports IC50 results from patent US20160272680A1 (Bristol-Myers Squibb, published 2016).

Numbered stars: 1 amine (or outer) side, 2 acyl side, 3 side chain; on linkers, the order of the positions; unused ones are H or OH. Bridge positions count the residues as written; N and C are the ends. Square brackets hold non-standard residues; d marks the D form. * marks the point of attachment. Trp(1-CH2CO) = O=C([C@H](Cc1cn(CC(=O)[*:3])c2ccccc12)N[*:1])[*:2]; Hyp = O=C(O)[C@@H]1C[C@@H](O)CN1; NMeNle = CCCC[C@H](NC)C(=O)O; NMeA = CN[C@@H](C)C(=O)O; Dab = NCC[C@H](N)C(=O)O; Dap = NC[C@H](N)C(=O)O; NHBn = c1ccc(CN*)cc1

B1: Example 13088 (peptide)
peptide: {CH2CO}-Y[NMeA]NP[Dap]L[Hyp]WGW[NMeNle][NMeNle]LCG-{4‑phenylpiperidine amide}
modifications: thioether N-14
notes: Macrocyclic peptide
B2: Example 13105 (peptide)
peptide: {CH2CO}-Y[NMeA]NP[Dap]L[Hyp]WGW[NMeNle][NMeNle]LCG-{methyl 3‑aminopropionate}
modifications: thioether N-14
notes: Macrocyclic peptide
B3: Example 13093 (peptide)
peptide: {CH2CO}-Y[NMeA]NP[Dap]L[Hyp]WGW[NMeNle][NMeNle]LCG-{N‑(3-aminopropyl)morpholine amide}
modifications: thioether N-14
notes: Macrocyclic peptide
B4: Example 13091 (peptide)
peptide: {CH2CO}-Y[NMeA]NP[Dap]L[Hyp]WGW[NMeNle][NMeNle]LCG-cyclopropylamide
modifications: thioether N-14
notes: Macrocyclic peptide
B5: Example 13117 (peptide)
peptide: {CH2CO}-Y[NMeA]NP[Dap]L[Hyp]WGW[NMeNle][NMeNle]LCG-phenylpiperazine
modifications: thioether N-14
notes: Macrocyclic peptide
B6: Example 13114 (peptide)
peptide: {CH2CO}-Y[NMeA]NP[Dap]L[Hyp]WGW[NMeNle][NMeNle]LCG-{piperazin‑2‑one}
modifications: thioether N-14
notes: Macrocyclic peptide
B7: Example 13086 (peptide)
peptide: {CH2CO}-Y[NMeA]NP[Dap]L[Hyp]WGW[NMeNle][NMeNle]LCG-{piperidin‑1‑yl amide}
modifications: thioether N-14
notes: Macrocyclic peptide
B8: Example 13080 (peptide)
peptide: {CH2CO}-Y[NMeA]NP[Dap]L[Hyp]W[Dab][Trp(1-CH2CO)][NMeNle][NMeNle]LCG-NHBn
modifications: thioether N-14
SMILES: CCCC[C@H]1C(=O)N(C)[C@@H](CCCC)C(=O)N[C@@H](CC(C)C)C(=O)N[C@H](C(=O)NCC(=O)NCc2ccccc2)CSCC(=O)N[C@@H](Cc2ccc(O)cc2)C(=O)N(C)[C@@H](C)C(=O)N[C@@H](CC(N)=O)C(=O)N2CCC[C@H]2C(=O)N[C@@H](CN)C(=O)N[C@@H](CC(C)C)C(=O)N2C[C@H](O)C[C@H]2C(=O)N[C@@H](Cc2c[nH]c3ccccc23)C(=O)N[C@@H](CCN)C(=O)N[C@@H](Cc2cn(CC(=O)O)c3ccccc23)C(=O)N1C
notes: Macrocyclic peptide
B9: Example 13110 (peptide)
peptide: {CH2CO}-Y[NMeA]NP[Dap]L[Hyp]WGW[NMeNle][NMeNle]LCG-{3‑aminopropanamide}
modifications: thioether N-14
notes: Macrocyclic peptide

The target of one assay is T1, hPDL1(19-239)-TVMV-His (human, UniProt Q9NZQ7 19-239).
T1 construct: Expressed in HEK293T cells; The text says amino acids 18-239, but the construct is named hPD-L1(19-239); The whole entry, including the TVMV site and His tag, is the protein used in the assay; also called PD-L1-TVMV-His; PD-L1-His
T1 sequence (Q9NZQ7 other isoform, or with tags, fused parts or gaps limits assumed): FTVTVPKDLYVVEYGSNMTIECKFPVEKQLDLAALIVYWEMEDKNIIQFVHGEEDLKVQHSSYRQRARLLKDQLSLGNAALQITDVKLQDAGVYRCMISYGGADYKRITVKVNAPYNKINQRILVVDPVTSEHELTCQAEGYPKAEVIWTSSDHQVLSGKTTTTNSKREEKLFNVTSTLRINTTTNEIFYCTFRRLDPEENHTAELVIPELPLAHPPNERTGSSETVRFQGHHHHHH
Briefly: HTRF competition of PD-1-Ig binding to PD-L1-His. As for the experimental part:
Homogenous Time-Resolved Fluorescence (HTRF) Assays of Binding of Soluble PD-1 to Soluble PD-L1. Soluble PD-1 and soluble PD-L1 refers to proteins with carboxyl-end truncations that remove the transmembrane-spanning regions and are fused to heterologous sequences, specifically the Fc portion of the human immunoglobuling G sequence (Ig) or the hexahistidine epitope tag (His). All binding studies were performed in an HTRF assay buffer consisting of dPBS supplemented with 0.1% (w/v) bovine serum albumin and 0.05% (v/v) Tween-20. For the PD-1-Ig/PD-L1-His binding assay, inhibitors were pre-incubated with PD-L1-His (10 nM final) for 15 m in 4 μl of assay buffer, followed by addition of PD-1-Ig (20 nM final) in 1 μl of assay buffer and further incubation for 15 m. PD-L1 fusion proteins from either human, cynomologous macaques, mouse, or other species were used. HTRF detection was achieved using europium crypate-labeled anti-Ig monoclonal antibody (1 nM final) and allophycocyanin (APC) labeled anti-His monoclonal antibody (20 nM final). Antibodies were diluted in HTRF detection buffer and 5 μl was dispensed on top of binding reaction. The reaction was allowed to equilibrate for 30 minutes and signal (665 nm/620 nm ratio) was obtained using an EnVision fluorometer. Additional binding assays were established between PD-1-Ig/PD-L2-His (20 and 5 nM, respectively), CD80-His/PD-L1-Ig (100 and 10 nM, respectively) and CD80-His/CTLA4-Ig (10 and 5 nM, respectively). Binding/competition studies between biotinylated Compound No. 71 and human PD-L1-His were performed as follows. Macrocyclic peptide inhibitors were pre-incubated with PD-L1-His (10 nM final) for 60 minutes in 4 μl of assay buffer followed by addition of biotinylated Compound No. 71 (0.5 nM final) in 1 μl of assay buffer. Binding was allowed to equilibrate for 30 minutes followed by addition of europium crypated labeled Streptavidin (2.5 pM final) and APC-labeled anti-His (20 nM final) in 5 μl of HTRF buffer. […]
On the technique in general: Time-resolved FRET reads energy transfer from a long-lived donor to a nearby acceptor.
As usually defined, the IC50 is the concentration that inhibits the measured activity by half. Higher therefore signals weaker potency. The molecule B1 came in with an IC50 of 50 nM. Same read-out and setting: under B2 stands 10 nM. B3 displayed an IC50 of 8.17 nM.

A further assay has as its target T1, hPDL1(19-239)-TVMV-His. Briefly: HTRF competition of PD-1-Ig binding to PD-L1-His; code B=0.004-0.0099 µM. As for the experimental part: Homogenous Time-Resolved Fluorescence (HTRF) Assays of Binding of Soluble PD-1 to Soluble PD-L1. Soluble PD-1 and soluble PD-L1 refers to proteins with carboxyl-end truncations that remove the transmembrane-spanning regions and are fused to heterologous sequences, specifically the Fc portion of the human immunoglobuling G sequence (Ig) or the hexahistidine epitope tag (His). All binding studies were performed in an HTRF assay buffer consisting of dPBS supplemented with 0.1% (w/v) bovine serum albumin and 0.05% (v/v) Tween-20. For the PD-1-Ig/PD-L1-His binding assay, inhibitors were pre-incubated with PD-L1-His (10 nM final) for 15 m in 4 μl of assay buffer, followed by addition of PD-1-Ig (20 nM final) in 1 μl of assay buffer and further incubation for 15 m. PD-L1 fusion proteins from either human, cynomologous macaques, mouse, or other species were used. HTRF detection was achieved using europium crypate-labeled anti-Ig monoclonal antibody (1 nM final) and allophycocyanin (APC) labeled anti-His monoclonal antibody (20 nM final). Antibodies were diluted in HTRF detection buffer and 5 μl was dispensed on top of binding reaction. The reaction was allowed to equilibrate for 30 minutes and signal (665 nm/620 nm ratio) was obtained using an EnVision fluorometer. Additional binding assays were established between PD-1-Ig/PD-L2-His (20 and 5 nM, respectively), CD80-His/PD-L1-Ig (100 and 10 nM, respectively) and CD80-His/CTLA4-Ig (10 and 5 nM, respectively). Binding/competition studies between biotinylated Compound No. 71 and human PD-L1-His were performed as follows. Macrocyclic peptide inhibitors were pre-incubated with PD-L1-His (10 nM final) for 60 minutes in 4 μl of assay buffer followed by addition of biotinylated Compound No. 71 (0.5 nM final) in 1 μl of assay buffer. Binding was allowed to equilibrate for 30 minutes followed by addition of europium crypated labeled Streptavidin (2.5 pM final) and APC-labeled anti-His (20 nM final) in 5 μl of HTRF buffer. The reaction was allowed to equilibrate for 30 m and signal (665 nm/620 nm ratio) was obtained using an EnVision fluorometer.
B4 displayed an IC50 of 4 to 9.9 nM. B5 gave an IC50 of 4 to 9.9 nM.

Take B6: the IC50 lay within 4 to 9.9 nM. In the case of B7, the IC50 lay within 4 to 9.9 nM. B8 registered a concentration for half-maximal inhibition (IC50) of 4 to 9.9 nM. For the molecule B9, the IC50 was 4 to 9.9 nM.
